Assay results taken from patent US20260232826A1 (MABLINK BIOSCIENCE, published 2026).

Legend:
[1] = target: T1, recombinant human FRα protein (Sino Biological cat #11241-H08H) (human, UniProt P15328 25-233); assay: SPR, Biacore T200, 25 °C: antibody or ADC captured with Human Antibody Capture kit on CM5 chip, recombinant human FRα as analyte (0.5-8 nM), single cycle kinetics, 1:1 model, mean over replicates
T1 construct: Bought recombinant protein; also called human folate receptor alpha; FOLR1
T1 sequence (P15328 25-233 limits assumed): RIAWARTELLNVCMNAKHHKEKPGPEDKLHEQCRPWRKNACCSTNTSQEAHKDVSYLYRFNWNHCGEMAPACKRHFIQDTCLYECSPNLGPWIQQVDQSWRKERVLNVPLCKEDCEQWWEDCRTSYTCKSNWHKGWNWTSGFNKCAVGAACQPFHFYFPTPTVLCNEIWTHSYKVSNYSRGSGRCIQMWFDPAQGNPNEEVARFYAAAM
Protocol: (§1) Surface plasmon resonance (SPR) experiments are performed on a Biacore T200 apparatus, at 25° C. Tested antibody or ADC are captured at low density (300-500 RU) on a CM5 series S sensorchip, beforehand functionalized with a Human Antibody Capture kit (Cytiva cat #BR100839). A functionalized surface/flow cell treated similarly but omitting ligand is used as reference. […] The dissociation phase is measured by injection of running buffer for 900 sec. Between duplicates, surfaces/flow cells are regenerated with 3M MgCl₂ to remove both analyte and ligand, and fresh ligand capture are done using identical conditions. The data analysis is performed using the Biacore Evaluation software after subtraction of reference surface and analyte zero-concentration signals. Data are processed and fit to a 1:1 binding model to determine the binding kinetic rate constants, kₐ (on-rate) and kd (off-rate), and the KD (equilibrium dissociation constant, also referred to as “affinity”). Mean values and standard deviations over replicates are reported.
(§2) Surface plasmon resonance (SPR) experiments were performed on a Biacore T200 apparatus, at 25° C. Tested antibody or ADC were captured at low density (300-500 RU) on a CM5 series S sensorchip, beforehand functionalized with a Human Antibody Capture kit (Cytiva cat #BR100839). A functionalized surface/flow cell treated similarly but omitting ligand was used as reference. […] The dissociation phase was measured by injection of running buffer for 900 sec. Between duplicates, surfaces/flow cells were regenerated with 3M MgCl₂ to remove both analyte and ligand, and fresh ligand capture were done using identical conditions.

[2] = target: T1, recombinant human FRα protein (Sino …); assay: SPR, Biacore T200, 25 °C: antibody or ADC captured with Human Antibody Capture kit on CM5 chip, recombinant human FRα as analyte (0.5-8 nM), single cycle kinetics, 1:1 model, KD calculated as kd/ka
Protocol: as §1, §2

[3] = target: T1, recombinant human FRα protein (Sino …); assay: ELISA: plate coated with recombinant human FRα (2 µg/mL), threefold dilution series of the antibody or ADC, goat anti-human IgG-HRP, normalized A450; x axis printed as [Recombinant FRa] (M) with log10 values
Protocol: (§3) Sandwich ELISA assays are performed using 96-well high-binding ELISA plates (Corning Inc., New York, NY, USA, Cat #3590). Plates are coated using 100 µL/well of recombinant human FRα protein (Sino Biological cat #11241-H08H) in PBS (pH 7.4) at 2 μg/mL and incubated overnight at 4° C. After 2 washes with PBS-T (PBS+0.05% Tween-20), the plates are blocked with 200 μL/well of incubation buffer (PBS-T+0.1% BSA) for 1 h at room temperature. The plates are washed 4 times with PBS-T, and 100 μL of a threefold dilution series of tested compound (antibody or antibody-drug conjugate) is added. Then, the plates are incubated for 2 h at room temperature in the dark. After 5 washes with PBS-T, plates are incubated 1 h at room temperature with 100 μL/well of a goat anti-human IgG (H+L) HRP conjugated antibody (Jackson Immunoresearch cat #109-035-088), previously diluted 1:250000 in incubation buffer. After 5 washes with PBS-T, TMB substrate solution (Thermo-Fisher cat #N301) is added. […] Sigmoidal fittings were performed using GraphPad Prism 9 software.
Sandwich ELISA assays were performed using 96-well high-binding ELISA plates (Corning Inc., New York, NY, USA, Cat #3590). Plates were coated using 100 μL/well of recombinant human FRα protein (Sino Biological cat #11241-H08H); recombinant cynomolgus FRα protein (Sino Biological cat #90950-C08H); recombinant rat FRα protein (Sino Biological cat #81073-R08H) or recombinant mouse FRα protein (Sino Biological cat #50573-M08H) in PBS (pH 7.4) at 2 μg/mL and incubated overnight at 4° C. After 2 washes with PBS-T (PBS+0.05% Tween-20), the plates were blocked with 200 μL/well of incubation buffer (PBS-T+0.1% BSA) for 1 h at room temperature. The plates were washed 4 times with PBS-T, and 100 μL of a threefold dilution series of tested compound (antibody or antibody-drug conjugate) was added. Then, the plates were incubated for 2 h at room temperature in the dark. After 5 washes with PBS-T, plates were incubated 1 h at room temperature with 100 μL/well of a goat anti-human IgG (H+L) HRP conjugated antibody (Jackson Immunoresearch cat #109-035-088), previously diluted 1:250000 in incubation buffer.

[4] = target: T1, recombinant human FRα protein (Sino …); assay: SPR Biacore T200, antibody captured, recombinant human FRα as analyte, 1:1 model; the filing attributes it to an increased kd with a similar ka
Protocol: as §1
Surface plasmon resonance (SPR) experiments were performed on a Biacore T200 apparatus, at 25° C. Tested antibody or ADC were captured at low density (300-500 RU) on a CM5 series S sensorchip, beforehand functionalized with a Human Antibody Capture kit (Cytiva cat #BR100839). […] The dissociation phase was measured by injection of running buffer for 900 sec. […]

[5] = target: T2, recombinant mouse FRα protein (Sino Biological cat #50573-M08H) (mouse, UniProt P35846 25-232); assay: ELISA: plate coated with recombinant mouse FRα (2 µg/mL), threefold dilution series of F-LALA-VA-EXA, goat anti-human IgG-HRP, A450; x axis printed as [Recombinant FRa] (M) with log10 values
T2 construct: Bought; also called mouse recombinant FRα protein
T2 sequence (P35846 25-232 limits assumed, stated change not applied): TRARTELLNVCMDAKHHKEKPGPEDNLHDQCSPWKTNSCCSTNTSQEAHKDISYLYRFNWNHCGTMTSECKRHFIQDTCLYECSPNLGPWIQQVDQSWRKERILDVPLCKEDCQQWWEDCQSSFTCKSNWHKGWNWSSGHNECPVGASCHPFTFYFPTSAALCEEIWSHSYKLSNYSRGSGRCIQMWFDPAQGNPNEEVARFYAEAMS
Protocol: (§4) Sandwich ELISA assays were performed using 96-well high-binding ELISA plates (Corning Inc., New York, NY, USA, Cat #3590). Plates were coated using 100 μL/well of recombinant human FRα protein (Sino Biological cat #11241-H08H); recombinant cynomolgus FRα protein (Sino Biological cat #90950-C08H); recombinant rat FRα protein (Sino Biological cat #81073-R08H) or recombinant mouse FRα protein (Sino Biological cat #50573-M08H) in PBS (pH 7.4) at 2 μg/mL and incubated overnight at 4° C. After 2 washes with PBS-T (PBS+0.05% Tween-20), the plates were blocked with 200 μL/well of incubation buffer (PBS-T+0.1% BSA) for 1 h at room temperature. The plates were washed 4 times with PBS-T, and 100 μL of a threefold dilution series of tested compound (antibody or antibody-drug conjugate) was added. Then, the plates were incubated for 2 h at room temperature in the dark. After 5 washes with PBS-T, plates were incubated 1 h at room temperature with 100 μL/well of a goat anti-human IgG (H+L) HRP conjugated antibody (Jackson Immunoresearch cat #109-035-088), previously diluted 1:250000 in incubation buffer. After 5 washes with PBS-T, TMB substrate solution (Thermo-Fisher cat #N301) was added. […] Sigmoidal fittings were performed using GraphPad Prism 9 software.

[6] = target: T1, recombinant human FRα protein (Sino …); assay: ELISA: plate coated with recombinant human FRα (2 µg/mL), threefold dilution series of F-LALA-VA-EXA, goat anti-human IgG-HRP, A450; x axis printed as [Recombinant FRa] (M) with log10 values
Protocol: as §3
Sandwich ELISA assays were performed using 96-well high-binding ELISA plates (Corning Inc., New York, NY, USA, Cat #3590). […]

[7] = target: T3, recombinant rat FRα protein (Sino Biological cat #81073-R08H) (rat, UniProt G3V8M6 25-232); assay: ELISA: plate coated with recombinant rat FRα (2 µg/mL), threefold dilution series of F-LALA-VA-EXA, goat anti-human IgG-HRP, A450; x axis printed as [Recombinant FRa] (M) with log10 values
T3 construct: Bought; also called rat recombinant FRα protein
T3 sequence (G3V8M6 entry or part of it R08H R08H limits assumed): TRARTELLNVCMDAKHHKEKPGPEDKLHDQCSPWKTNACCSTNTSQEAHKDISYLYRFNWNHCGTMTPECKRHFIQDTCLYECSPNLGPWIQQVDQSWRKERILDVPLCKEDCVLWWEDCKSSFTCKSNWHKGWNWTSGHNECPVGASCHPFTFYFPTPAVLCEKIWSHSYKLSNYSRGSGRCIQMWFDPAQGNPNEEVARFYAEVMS
Protocol: as §4

[8] = target: T4, recombinant cynomolgus FRα protein (Sino Biological cat #90950-C08H) (cynomolgus, UniProt A0A2K5U044 25-234); assay: ELISA: plate coated with recombinant cynomolgus FRα (2 µg/mL), threefold dilution series of F-LALA-VA-EXA, goat anti-human IgG-HRP, A450; x axis printed as [Recombinant FRa] (M) with log10 values
T4 construct: Bought; also called cynomolgus recombinant FRα protein
T4 sequence (A0A2K5U044 entry or part of it C08H C08H): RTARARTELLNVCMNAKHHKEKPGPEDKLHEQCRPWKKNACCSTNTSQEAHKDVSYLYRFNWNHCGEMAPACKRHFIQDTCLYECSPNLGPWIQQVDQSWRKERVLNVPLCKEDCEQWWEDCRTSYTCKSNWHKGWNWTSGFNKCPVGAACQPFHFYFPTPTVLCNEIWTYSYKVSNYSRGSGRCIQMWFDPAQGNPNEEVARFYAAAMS
Protocol: as §4

B1: mirvetuximab (antibody, human IgG1, kappa, V domains shown)
VH: QVQLVQSGAEVVKPGASVKISCKASGYTFTGYFMNWVKQSPGQSLEWIGRIHPYDGDTFYNQKFQGKATLTVDKSSNTAHMELLSLTSEDFAVYYCTRYDGSRAMDYWGQGTTVTVSS
VL: DIVLTQSPLSLAVSLGQPAIISCKASQSVSFAGTSLMHWYHQKPGQQPRLLIYRASNLEAGVPDRFSGSGSKTDFTLTISPVEAEDAATYYCQQSREYPYTFGGGTKLEIKR
notes: also called native mirvetuximab
Binder B1 has a koff [1] of 0.000244 s⁻¹, a kon [1] of 1.15e+06 M⁻¹ s⁻¹ and a Kd [2] of 0.211 nM. The “EC50 (read off the curve)” value [3] was about 0.2 nM.

B2: M-SORAV (antibody, human IgG1, kappa, V domains shown)
VH: QVQLVQSGAEVVKPGASVKISCKASGYTFTGYFMNWVKQSPGQSLEWIGRIHPYDGDTFYNQKFQGKATLTVDKSSNTAHMELLSLTSEDFAVYYCTRYDGSRAMDYWGQGTTVTVSS
VL: DIVLTQSPLSLAVSLGQPAIISCKASQSVSFAGTSLMHWYHQKPGQQPRLLIYRASNLEAGVPDRFSGSGSKTDFTLTISPVEAEDAATYYCQQSREYPYTFGGGTKLEIKR
modifications: sulfo-SPDB-DM4 stochastically conjugated to lysines; average DAR 3.35 for the whole antibody
notes: Antibody-drug conjugate; also called ADC derivative of mirvetuximab; mirvetuximab soravtansine comparator
B2 gave a koff [1] of 0.000327 s⁻¹, a kon [1] of 1.26e+06 M⁻¹ s⁻¹ and a Kd [2] of 0.26 nM. The “EC50 (read off the curve)” value [3] was about 0.3 nM.

B3: farletuzumab (antibody, human IgG1, kappa)
heavy: not shown
light: DIQLTQSPSSLSASVGDRVTITCSVSSSISSNNLHWYQQKPGKAPKPWIYGTSNLASGVPSRFSGSGSGTDYTFTISSLQPEDIATYYCQQWSSYPYMYTFGQGTKVEIKRTVAAPSVFIFPPSDEQLKSGTASVVCLLNNFYPREAKVQWKVDNALQSGNSQESVTEQDSKDSTYSLSSTLTLSKADYEKHKVYACEVTHQGLSSPVTKSFNRGEC
notes: Human IgG1, made in CHO K1 cells; also called mAb2; native farletuzumab
In the case of B3, the koff [1] is reported as 0.0361 s⁻¹, the kon [1] is reported as 1.9e+06 M⁻¹ s⁻¹ and the “fold change of KD against mirvetuximab and mirvetuximab-based constructs” value [4] is reported as about 10 fold. The Kd [2] was 25.1 nM and the “EC50 (read off the curve)” value [3] was about 0.1 nM.

B4: F-LALA-VA-EXA (antibody, human IgG1, kappa, L234A L235A)
heavy: not shown
light: DIQLTQSPSSLSASVGDRVTITCSVSSSISSNNLHWYQQKPGKAPKPWIYGTSNLASGVPSRFSGSGSGTDYTFTISSLQPEDIATYYCQQWSSYPYMYTFGQGTKVEIKRTVAAPSVFIFPPSDEQLKSGTASVVCLLNNFYPREAKVQWKVDNALQSGNSQESVTEQDSKDSTYSLSSTLTLSKADYEKHKVYACEVTHQGLSSPVTKSFNRGEC
modifications: drug-linker LNK4-S on the interchain cysteine thiol, 1 per light chain (LC-1d); drug-linker LNK4-S (Val-Ala-exatecan with polysarcosine) on interchain cysteine thiols, 3 per heavy chain (HC-3d); DAR …
notes: Antibody-drug conjugate
With B4 the binding result [5] was “no binding”, the koff [1] was 0.0368 s⁻¹ and the kon [1] was 1.33e+06 M⁻¹ s⁻¹. For the same binder, the “EC50 (read off the curve)” value [6] was about 0.1 nM, the binding result [7] was “no binding” and the Kd [2] was 27.8 nM. For the same binder, the “EC50 (read off the curve)” value [8] was about 0.1 nM and the “EC50 (read off the curve)” value [3] was about 0.1 nM.

B5: farletuzumab-LALA (antibody, human IgG1, kappa, L234A L235A)
heavy: not shown
light: DIQLTQSPSSLSASVGDRVTITCSVSSSISSNNLHWYQQKPGKAPKPWIYGTSNLASGVPSRFSGSGSGTDYTFTISSLQPEDIATYYCQQWSSYPYMYTFGQGTKVEIKRTVAAPSVFIFPPSDEQLKSGTASVVCLLNNFYPREAKVQWKVDNALQSGNSQESVTEQDSKDSTYSLSSTLTLSKADYEKHKVYACEVTHQGLSSPVTKSFNRGEC
notes: also called mAb1; Fc-silent farletuzumab-LALA
For B5, the koff [1] was 0.0321 s⁻¹, the kon [1] was 1.34e+06 M⁻¹ s⁻¹ and the “fold change of KD against mirvetuximab and mirvetuximab-based constructs” value [4] was about 10 fold. The Kd [2] was 25.5 nM and the “EC50 (read off the curve)” value [3] was about 0.1 nM.

B6: F-VA-EXA (antibody, human IgG1, kappa)
heavy chain: not shown
light chain: DIQLTQSPSSLSASVGDRVTITCSVSSSISSNNLHWYQQKPGKAPKPWIYGTSNLASGVPSRFSGSGSGTDYTFTISSLQPEDIATYYCQQWSSYPYMYTFGQGTKVEIKRTVAAPSVFIFPPSDEQLKSGTASVVCLLNNFYPREAKVQWKVDNALQSGNSQESVTEQDSKDSTYSLSSTLTLSKADYEKHKVYACEVTHQGLSSPVTKSFNRGEC
modifications: interchain cysteine thiol conjugated to drug-linker LNK4-S, DAR 8; interchain cysteine thiols conjugated to drug-linker LNK4-S (Val-Ala-exatecan, polysarcosine), DAR 8
B6 was tested, and the koff [1] was 0.0306 s⁻¹, the kon [1] was 1e+06 M⁻¹ s⁻¹ and the Kd [2] was 30.9 nM. The “EC50 (read off the curve)” value [3] was about 0.1 nM.
